Data published in PMC10015889, “Hemophilia A subjects with an intron-22 gene inversion mutation show CD4^+ T-effector responses to multiple epitopes in FVIII” (Frontiers in Immunology, 2023).

Key:
DR1001 = assay: Peptide-MHCII competition binding assay, DR1001; settings: biotinylated and non-biotinylated versions of the reference peptide; read-out: Binding affinity of reference peptide (IC50), DRB1*1001
Description: (§1) Quantitative peptide-MHC competition binding assays were carried out to determine binding avidities of four 20-mer peptides spanning the F8 exon 22-23 junction region to 10 HLA-DRB1 proteins using methodology described previously ([29]). Briefly, 1-µl aliquots of serially diluted (50nM – 50μM in DMSO) non-biotinylated FVIII peptides, were added to triplicate wells of 96-well polypropylene plates. Serially diluted non-FVIII reference peptides known to bind to specific HLA-DRB1 ( Table S6 ) were added to separate wells as positive controls. The HLA-DRB1 proteins were diluted to 50 nM in 150 mM citrate-phosphate, pH 5.4, 0.75% n-octyl-beta-D-glucopyranoside, 1 mM PMSF. 50 μl of the HLA-DRB1 solution was added per well, and the plates were sealed and incubated at 37°C for 30 min to allow peptide binding to the HLA-DRB1 protein. […] Wallac enhancement solution (100 μl/well) was then added, and the plates were incubated at room temperature for 30 min and then read on a Victor 2D time-resolved fluorometer. Sigmoidal binding curves were simulated and IC50 values calculated for the FVIII peptides, based on their competition with the reference peptides for each HLA-DRB1.

DR1104 = assay: Peptide-MHCII competition binding assay, DR1104; settings: biotinylated and non-biotinylated versions of the reference peptide; read-out: Binding affinity of reference peptide (IC50), DRB1*1104
Description: as §1

HLA-DR1101 = molecular target: T1, HLA-DR1101 (Homo sapiens, UniProt P01903+P01911, A100R/A169T/A87E/I96F/K41T/L162R/M171V/P40S/Q125H/Q178H/Q39Y/Q99D/R42S/S66Y/T262R/V115G/W38E); settings: earlier study; cited from earlier work
T1 construct: Recombinant, extracellular domains of 10 HLA-DRB1 protein monomers; purchased Tetramer Core Facility, Benaroya Research Institute

HLA-DR0101 = molecular target: T2, HLA-DR0101 (Homo sapiens, UniProt P01903+P01911, A100R/D57E/F55L/F60I/F76Y/I96L/L162R/M171V/P40L/Q125E/R42F/V115G/Y59C); settings: earlier study; cited from earlier work
T2 construct: Recombinant, extracellular domains of 10 HLA-DRB1 protein monomers; purchased Tetramer Core Facility, Benaroya Research Institute

HLA-DR1501 = molecular target: T3, HLA-DR1501 (Homo sapiens, UniProt P01903+P01911); settings: earlier study; cited from earlier work
T3 construct: Recombinant, extracellular domains of 10 HLA-DRB1 protein monomers; purchased Tetramer Core Facility, Benaroya Research Institute

T1 sequence (P01903 26-216 limits assumed, other chains not shown): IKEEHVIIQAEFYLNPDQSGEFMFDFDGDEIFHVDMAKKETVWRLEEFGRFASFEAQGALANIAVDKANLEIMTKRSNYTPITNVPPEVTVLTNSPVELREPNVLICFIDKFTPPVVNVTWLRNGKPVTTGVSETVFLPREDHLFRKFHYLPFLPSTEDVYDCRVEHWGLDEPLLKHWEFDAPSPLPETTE

TT 560-571: reference peptide for DRB1*1001 binding (IYQYLYAQKSPT; UniProt P04958 560-571, looked up, fragment)
IC50 (DR1001): 200 nM

VP16 34-44: reference peptide for DRB1*1104 binding (APPLYATGRLS; UniProt P06492 34-44, looked up, fragment)
IC50 (DR1104): 900 ± 100 nM

R593-608: R593-608 motif of FVIII tested in earlier study (ref 20) (RFLPNPAGVQLEDPEF; UniProt P00451 612-627, looked up, fragment)
Peptide-HLA-DR binding, in words, DR1101 (HLA-DR1101): micromolar
Peptide-HLA-DR binding, in words, DR0101 (HLA-DR0101): micromolar
Peptide-HLA-DR binding, in words, DR1501 (HLA-DR1501): micromolar
